Experimental findings from US20220064272A1 (TAUC3 BIOLOGICS, published 2022) are described below.

Assay [1] has as its target T1, TauC3 (C-terminally truncated tau fragment ending at aspartate 421 of htau40) (human, UniProt P10636 1-738).
T1 construct: Generated and purified by Genscript; also called Human TauC3; recombinant TauC3 protein
Put plainly: binding ELISA, TauC3 coated. An outline of the steps:
(§1)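 TauC3 antigen, made and purified by Genscript, was coated for a binding ELISA. The antibodies tested were chimeric or humanized IgG4κ expressed in ExpiCHO cells. Binding was recorded as absorbance at 650 nm, and EC50 came from the concentration-response of each antibody.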

Assay [2] addresses T1, TauC3 (C-terminally truncated tau …). Put plainly: binding ELISA on coated TauC3, OD650. An outline of the steps:
as §1
In general terms: An ELISA detects its analyte on a solid surface through an enzyme-linked reagent.

In assay [3] the target is T2, full length Tau (2N4R, htau40) (human, UniProt P10636 1-758).
T2 construct: Generated and purified by Genscript; also called FL Tau; FLT
Put plainly: binding ELISA on coated FL Tau, OD650. An outline of the steps:
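Binding ELISA on coated full-length tau antigen, which was made and purified by Genscript. Antibody binding was read as absorbance at 650 nm.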

Assay [4] has as its target T1, TauC3 (C-terminally truncated tau …). Put plainly: binding ELISA on coated TauC3, OD650. The gist of the method:
as §1
This is another data set of the same source.

Assay [5] has the same target. Put plainly: binding ELISA on coated TauC3, OD650. An outline of the steps: as §1
This is another data set of the same source.

Assay [6] has the same target. As to the kind of experiment: binding ELISA on coated TauC3, OD650. The gist of the method:
as §1
This is another data set of the same source.

For assay [7] the target is unchanged. As to the kind of experiment: binding ELISA on coated TauC3, OD650. An outline of the steps:
as §1
The source holds these as a separate data set.

Assay [8] has the same target. As to the kind of experiment: binding ELISA on coated TauC3, OD650. An outline of the steps:
as §1
This is another data set of the same source.

Assay [9] has the same target. As to the kind of experiment: binding ELISA on coated TauC3, OD650. The gist of the method: as §1
This is another data set of the same source.

The target is the same in assay [10]. As to the kind of experiment: binding ELISA on coated TauC3, OD650. An outline of the steps: as §1
The source holds these as a separate data set.

For assay [11] the target is unchanged. Put plainly: SPR (Biacore) kinetics, TauC3 amine-coupled on CM5, 1:1 global fit. An outline of the steps:
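Purified antigen was immobilised on a CM5 chip by amine coupling and studied by surface plasmon resonance (Biacore). Each purified antibody was injected over the chip as a concentration series. The data were fitted globally with a 1:1 model. That fit gave the association rate, dissociation rate and Kd.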

The target is the same in assay [12]. Put plainly: binding ELISA on coated TauC3, OD650; left table (HC variants). An outline of the steps: as §1
For assay [13] the target is unchanged. As to the kind of experiment: binding ELISA on coated TauC3, OD650; right table (HM variants). The gist of the method:
as §1

Assay [14] shares this target. Put plainly: Biacore kinetics, TauC3 amine-coupled on CM5, antibody series, 1:1 global fit. An excerpt: To determine the affinity of the binding interactions, a biacore kinetic assay was developed which involved immobilizing TauC3 on a CM5 chip via amine coupling and injecting a concentration series of the respective antibody over it.
(In general: Surface plasmon resonance follows binding to a sensor surface in real time, without labels.)

Assay [15] has the same target. As to the kind of experiment: Biacore off-rate ranking, TauC3 amine-coupled on CM5, one antibody concentration; one-phase exponential decay fit. The method, then:
(§2) To further evaluate the binding data observed on the Octet, an off-rate ranking experiment was performed on the Biacore 200 instrument. Biacore offers greater selectivity than the Octet and facilitated the immobilization of TauC3 onto a CM5 chip via amine coupling which stabilizes the antigen. This produces higher quality data with stable baselines and good reproducible responses. Once TauC3 is immobilized, one concentration (5 nM) of antibody is added, followed by a dissociation and regeneration step (Section 8.20). The off-rates were fitted using a two-phase decay model (FIG. 25B) or a one phase decay fitting only the second off-rate (FIG. 25A). The candidates were then ranked based on the off-rates obtained using the fits and compared. The data agreed with the Octet results (albeit with a different ranking order), highlighting Tau01 HMKM, HMKO, HMKP, HMKN and HMKE as the humanized variants with the slowest off-rates. The lack of binding of FL Tau to chimeric and a humanized candidate was also confirmed by Biacore by loading the antibody onto a Protein G chip and adding 250 nM FL Tau.

Assay [16] shares this target. As to the kind of experiment: Biacore off-rate ranking, TauC3 amine-coupled on CM5, one antibody concentration; two-phase decay fit, slow phase. Details: unit not given here. The method, then:
as §2

For assay [17] the target is unchanged. Put plainly: binding ELISA on TauC3 after 21 days at 37 C in PBS or mouse, human, cynomolgus serum, with non-incubated control. The method, then:
Purified samples of the chimeric and humanized antibodies were incubated in mouse, human and cynomolgus serum for 21 days. The binding of the Tau01 HMKE, HMKM, HMKN, HMKO, HMKP candidate antibodies which had been incubated in the 3 different serums were compared with an antibody incubated in PBS and a 4° C. positive control sample by binding ELISA to TauC3 (FIG. 37). The Tau01 HMKE, HMKM, HMKN, HMKO, HMKP candidate antibodies retained their binding capability after being incubated in mouse, human and cynomolgus serum.

Assay [18] concerns the target T2, full length Tau (2N4R, htau40). As to the kind of experiment: Octet, antibody on Protein G sensor, FL Tau in solution. The gist of the method:
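Antibody loaded on Protein G biosensors was tested by Bio-Layer Interferometry (OctetRed96) for binding to purified full-length tau in solution. The tau was made and purified by Genscript. Full-length tau was applied at 500 nM. The result is the binding signal response in nm.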
(In general: In BLI a coated tip is dipped into the sample, and binding shifts an interference pattern.)

Assay [19] deals with T1, TauC3 (C-terminally truncated tau …). Put plainly: binding ELISA on coated TauC3, OD650. An outline of the steps:
as §1
The source holds these as a separate data set.

The target is the same in assay [20]. As to the kind of experiment: binding ELISA, TauC3 coated; FIG. 16 ELISA. An outline of the steps: as §1

Where “and” joins values, the source holds several entries; their conditions need not be identical. Identical values can stand only once.

T2 sequence (P10636 other isoform, or with tags, fused parts or gaps limits assumed): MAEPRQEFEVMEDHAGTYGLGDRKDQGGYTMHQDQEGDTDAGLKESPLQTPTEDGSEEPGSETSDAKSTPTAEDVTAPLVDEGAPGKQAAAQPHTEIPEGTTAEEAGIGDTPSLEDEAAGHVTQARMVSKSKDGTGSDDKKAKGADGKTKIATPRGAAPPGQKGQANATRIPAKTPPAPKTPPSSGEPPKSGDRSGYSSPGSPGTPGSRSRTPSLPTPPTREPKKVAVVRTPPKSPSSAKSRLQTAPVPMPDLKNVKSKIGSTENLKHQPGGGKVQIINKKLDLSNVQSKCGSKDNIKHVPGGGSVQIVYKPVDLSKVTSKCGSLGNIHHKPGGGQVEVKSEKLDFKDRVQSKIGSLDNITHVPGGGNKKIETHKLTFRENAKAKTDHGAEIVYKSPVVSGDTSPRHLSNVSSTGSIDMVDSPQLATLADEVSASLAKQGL
T1 sequence (P10636 other isoform, or with tags, fused parts or gaps): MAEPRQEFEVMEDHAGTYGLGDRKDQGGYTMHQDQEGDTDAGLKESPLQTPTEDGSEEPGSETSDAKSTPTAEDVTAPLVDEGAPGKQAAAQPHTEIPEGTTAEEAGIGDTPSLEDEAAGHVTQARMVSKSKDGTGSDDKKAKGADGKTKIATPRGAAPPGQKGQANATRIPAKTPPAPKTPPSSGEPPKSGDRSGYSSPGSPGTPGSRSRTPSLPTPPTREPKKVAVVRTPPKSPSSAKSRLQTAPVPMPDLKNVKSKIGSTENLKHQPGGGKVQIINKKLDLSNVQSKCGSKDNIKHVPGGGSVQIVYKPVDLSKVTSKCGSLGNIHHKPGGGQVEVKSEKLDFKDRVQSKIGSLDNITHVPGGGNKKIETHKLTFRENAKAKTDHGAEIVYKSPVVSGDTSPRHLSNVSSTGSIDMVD

B1: MoTau01 HuG4K chimeric antibody (antibody, V domains shown)
VH: EVQVVESGGGLVQPKGSLKLSCAASGFTFNTYAMNWVRQAPGKGLEWVARIRSKSNNYATYYADSVKDRFTISRDDSQSMVYLQMNNLKTEDTAMYYCVGGGDFWGQGTALTVSS
VL: DIQMTQSPSSLSASLGERVSLTCRASQEISVYLSWFQQKPDGTIKRLIYGAFTLDSGVPKRFSGSRSGSDYSLTISSLESEDFADYYCLQYVRYPWTFGGGTKLEIK
notes: Mouse variable regions with human IgG4 / kappa constant regions (pHuG4, pHuK); also called chimeric Tau01
With B1, the EC50 (in general, the concentration at which the effect is half-maximal) in assay [1] is 0.7 nM and 0.65 nM; in assay [2], 0.71 nM; in assay [4], 0.58 nM and 0.54 nM and 0.63 nM; in assay [5], 0.298 nM and 0.313 nM; in assay [6] it was 0.724 nM; in assay [7] it was 0.724 nM. Besides, the concentration for a half-maximal effect (EC50) is 0.474 nM in assay [8]; 0.474 nM in assay [9]; 0.474 nM in [10]; 0.438 nM and 0.483 nM and 0.538 nM and 0.73 nM in assay [12]; 0.438 nM and 0.483 nM and 0.538 nM and 0.73 nM in assay [13]. Also, the binding result in assay [3] is “no binding (tested: about 30 nM)”. The Kd (commonly the concentration at which binding is half-saturated) in assay [11] turned out to be 0.057 nM; in [14] it was 0.0574 nM. Moreover, the koff (commonly the rate constant with which the complex falls apart) in assay [11] was 0.000741 s⁻¹; in assay [15] it was 0.000414 s⁻¹. Further, the kon (in general, a measure of how fast the partners come together) in [11] came out at 1.29e+07 M⁻¹ s⁻¹. The molecule also showed a Kslow in [16] of 0.000414. The concentration for a half-maximal effect (EC50 (read off the curve)) (commonly the concentration that produces a half-maximal response) in assay [17] was roughly 0.5 nM.

B2: Tau01 HFKB (antibody, V domains shown)
VH: LVQLVESGGGLVQPGGSLKLSCAASGFTFNTYAMNWVRQASGKGLEWVGRIRSKSNNYATAYAASVKGRFTISRDDSKNTAYLQMDSLKTEDTAVYYCVGGGDFWGQGTLVTVSS
VL: DIQMTQSPSSLSASVGDRVTITCRASQEISVYLSWFQQKPGKAIKRLIYGAFTLQSGVPSRFSGSRSGSEYTLTISSLQPEDFATYYCLQYVRYPWTFGGGTKVEIK
notes: human IgG4 kappa (HuG4K)
In the case of B2, in assay [5], the midpoint of the response, the EC50, lay at 2.93 nM.

B3: Tau01 HMKP HuG4k (antibody, V domains shown)
VH: LVQLVESGGGLVQPGGSLKLSCAASGFTFNTYAMNWVRQASGKGLEWVARIRSKSNNYATYYAASVKGRFTISRDDSKSMAYLQMDSLKTEDTAVYYCVGGGDFWGQGTLVTVSS
VL: DIQMTQSPSSLSASVGDRVTITCRASQEISVYLGWFQQKPGKAPKRLIYGAFKLQSGVPSRFSGSRSGTEYTLTISSLQPEDFATYYCLQYVRYPWTFGGGTKVEIK
notes: human IgG4 kappa (HuG4K); Lead candidate
Turning to B3, the binding result in assay [18] was “no binding”. The molecule also yielded a Kd in [11] of 0.013 nM. Further, the values for the koff in assay [11], in assay [14] and in assay [15] were 0.00186 s⁻¹, 0.00186 s⁻¹ and 0.000811 s⁻¹, respectively. For the same molecule, the kon in [11] and in assay [14] was 1.43e+08 M⁻¹ s⁻¹ each time. The EC50 in [13] was found to be 0.499 nM. The molecule further gave a Kslow in assay [16] of 0.000777. Further, the “EC50 (read off the curve)” value in assay [17] was roughly 0.6 nM.

B4: Tau01 HBKA (antibody, V domains shown)
VH: EVQVVESGGGLVQPGGSLKLSCAASGFTFNTYAMNWVRQASGKGLEWVARIRSKSNNYATYYADSVKGRFTISRDDSKSMVYLQMDSLKTEDTAVYYCVGGGDFWGQGTLVTVSS
VL: DIQMTQSPSSLSASVGDRVTITCRASQEISVYLGWYQQKPGKAPKRLIYGAFKLQSGVPSRFSGSRSGTEFTLTISSLQPEDFATYYCLQYVRYPWTFGGGTKVEIK
notes: human IgG4 kappa (HuG4K)
For the molecule B4, the values for the EC50 in assay [4], in assay [6] and in [19] were 1.39 nM, 0.795 nM and 0.92 nM, respectively.

B5: Tau01 HBKB (antibody, V domains shown)
VH: EVQVVESGGGLVQPGGSLKLSCAASGFTFNTYAMNWVRQASGKGLEWVARIRSKSNNYATYYADSVKGRFTISRDDSKSMVYLQMDSLKTEDTAVYYCVGGGDFWGQGTLVTVSS
VL: DIQMTQSPSSLSASVGDRVTITCRASQEISVYLSWFQQKPGKAIKRLIYGAFTLQSGVPSRFSGSRSGSEYTLTISSLQPEDFATYYCLQYVRYPWTFGGGTKVEIK
notes: human IgG4 kappa (HuG4K)
Regarding B5, the concentration giving a half-maximal response (EC50) in assay [1] came out at 0.78 nM; in assay [20] it was 0.81 nM; in assay [6] it was 0.767 nM; in assay [8] it was 0.402 nM; in assay [9] it was 0.402 nM; in assay [10], 0.402 nM.

B6: Tau01 HBKC (antibody, V domains shown)
VH: EVQVVESGGGLVQPGGSLKLSCAASGFTFNTYAMNWVRQASGKGLEWVARIRSKSNNYATYYADSVKGRFTISRDDSKSMVYLQMDSLKTEDTAVYYCVGGGDFWGQGTLVTVSS
VL: DIQMTQSPSSLSASVGDRVTITCRASQEISVYLSWFQQKPGKAPKRLIYGAFKLQSGVPSRFSGSRSGTEYTLTISSLQPEDFATYYCLQYVRYPWTFGGGTKVEIK
notes: human IgG4 kappa (HuG4K)
Consider B6, for which the EC50 in assay [20] turned out to be 0.84 nM; in assay [4], 0.99 nM.

B7: Tau01 HMKO HuG4k (antibody, V domains shown)
VH: LVQLVESGGGLVQPGGSLKLSCAASGFTFNTYAMNWVRQASGKGLEWVARIRSKSNNYATYYAASVKGRFTISRDDSKSMAYLQMDSLKTEDTAVYYCVGGGDFWGQGTLVTVSS
VL: DIQMTQSPSSLSASVGDRVTITCRASQEISVYLGWYQQKPGKAPKRLIYGAFSLQSGVPSRFSGSRSGTEYTLTISSLQPEDFATYYCLQYVRYPWTFGGGTKVEIK
notes: human IgG4 kappa (HuG4K)
With B7, the binding result in assay [18] is listed as “no binding”. For the same molecule, the Kd in assay [11] was 0.059 nM; in assay [14], 0.0594 nM. The values for the off-rate (koff) in [11], in assay [14] and in assay [15] were 0.00352 s⁻¹, 0.00352 s⁻¹ and 0.000473 s⁻¹, respectively. In addition, the association rate constant (kon) in assay [11] was 5.93e+07 M⁻¹ s⁻¹. In assay [13], this molecule returned a 50% effective concentration (EC50) of 0.583 nM. In addition, the Kslow in assay [16] is 0.000349. In addition, in [17], the “EC50 (read off the curve)” value is roughly 0.7 nM.
